Experimental findings from the DeepSol protein solubility set are described below.

A short description of the data set: soluble on expression in E. coli; label from the status in PepcDB or PDB records.
On to “MNEKQKRFADEYIMNGCNGKKAAISAGYSKKTAESLASRLLRNVNVSEYIKERLEQIQEERLMSITEALALSASIARGEPQEAYSKKYDHLNDEVEKEVTYTITPTFEERQRSIDHILKVYGAYIDKKEITQKNIEINIGEYDDES”, for which the “soluble on expression in E. coli” value is listed as “not soluble”.

As to “MNFLLILTLISIIVRSRQENASMDPCNDFYDYVCTNDTRSITKLNFASLFDDREILKPNISFPNNGTYIALDQILEPDRLMKWYMTVKSLDTATVDLEYFFETHYEYISKKNDSEKFSFAVETLENVNLTLTNIFYNSLYANIKVLNQLNLPAAEENKFLHHISNLLKNNTIEEIWSSSLSNKSKKVLDEELNNSKVFFGLLDYNNVTMLEETKLVYETEYYRLKSLLSSDDLDTEIAEKILRLGAIDTATKYLAKRIPGYEPEFLFSAFASNMENEAFKHNSAIYAGIVTRSDLQQPMLAIADTVSVLAHELMHFVYPSGTELLTPNVTKAAKKCTQDEVKRMGDSDVVKPIDGWFSKKVTHEDLANIMGLRMVMKMVARKSASEEQLKNALETLLSGLCIQGKPKNSILPHHHPFEISINTAVRQYPLFSSLYGCRLGDRMFAEAEQFCKPLGGEVNLEDYKIKNDTEDIGGFFTYIMDTANAFNFSFRN”, the “soluble on expression in E. coli” value is reported as “not soluble”.

As to “MNFNQFENQNFFNGNPSDTFKDLGKQVFNYFSTPSFVTNIYETDELYYLEAELAGVNKEDISIDFNNNTLTIQATRSAKYKSEQLILDERNFESLMRQFDFEAVDKQHITASFENGLLTITLPKILEHHHHHH”, the “soluble on expression in E. coli” value is “soluble”.

As for “MNFQEENENIKNDIEINLLHSAEADSVEAMMDLAVYGLAAMVAKHNKTRGEQLVLQAIAGHMRKLLAALPETESLVQTGKVYRRLEDLIFKTYLPEQ”, the “soluble on expression in E. coli” value was “not soluble”.

As to “MNFRTDSIDDLDKFKKEFKPVMHLKGDAFNQQLQSLINKYPQIQKNMKSEFIAYYDKEKNRETVKNYAWNLQKSINDIMQSYPSTKFVQFYKDDVSPSMVDGNGRLKSDTNVISIEGGKYDENKLEHHHHHH”, the “soluble on expression in E. coli” value is “soluble”.

Turning to “MNGIKTGLGITPGEHIISADSALSRNIRQCFCLSCHGRLILQTDAQGAWFEHDLHALSEQQKADCVVLNPEKSHPYIEDMAMFLSPLPVVLEWHCVMCEQFFHGKKFCEACGTGIYCRAVCTKSVYSYQPDLFEDCGGAST”, the “soluble on expression in E. coli” value is “not soluble”.

On to “MNGQAKIAEPRRLYQQIADQIRELIDVGEFLPGTRLPAERELAQKLGVSRPSLREALIALEIDNTVEIRMGSGVYVSTEALQTTHHTKSLGDSPSELMQARAALEGATIVLAANRMTDETIAALRQILNTMQKEIEAGRKPLDQDRLFHVTIAEQSGNSVLARLVANLFDERHSPISAQLRVKFEDRDTWTRALQEHEAILAALELKDPLLAQAAMHIHLEGSKRRWVDS”, for which the “soluble on expression in E. coli” value was “soluble”.

Regarding “MNHVKKHVLWKDEYFERYYRLNPELVQKRLDKIYQAEDDLMVLISTQLFCFLQANGTLYFDGCYKTGKADNSLLCTNLALWSIELACDHFDIREERGHTTKFSEQGESWLTLFACNQFSLVPYCYPAIQRGFQSGVLKEIVPFYREQKLGILAMEIMARERGDTINWEAMQVRVDPVYLDFCQNILLSSDDELVRTGLITLCDKHLEWTDFHNSDKHCCLTGYEIQRQDLLLWPFEYQAVKNWRARQGLSTPMIEHPLMNSPMTTANCPDFSQWQRPEWFNPLVDFLAQRRPELAFLRHLFI”, the “soluble on expression in E. coli” value is “not soluble”.

With “MNIGNITISVIIPVYNASVTLPHCLESLHKQTYRNLELLFVDDCSTDESLYILTSYAEQFAEIDFTIRILQHERNRGVAAARNTALKCATGDYIYYVDADDSIEPHTLECLVNEINHKGLDIVGHEWYLTFNSNARYMKQPAYTTSVEALRKMMGGVMRWNLWLFLVRRSLYVENDIRFTEGLNMGEDMMVMMKLFICAGKVGIVHRPFYHYRQSNPESLTKIYSQEHIIQVANNVYEVEKYVNASAYADSLIEFIPFLKLNIKLPLLITDDKSHYEQWLECFPEANCYVMNNKLLPLRTRIIQWMAVKRYFILLRLYYRTVFKLVYGIIYKLEHHHHHH”, the “soluble on expression in E. coli” value is listed as “not soluble”.

Consider “MNIGSAIREIRQRRGITIAQICEGTGLSKGFMSQVENNKTSPSISTLETISNFLNVPLPYLLLEQKDRLKIVKKEERKYSVYGKDEQRIEHVAEQGGLRLSLVEIPTGFPKENSPNAHEGEECHLVLRGKLEVQHGEDIAIVEEGDSFSWNACVPHIVRNIGEETALLLISSYAENRQRVY”, for which the “soluble on expression in E. coli” value is listed as “not soluble”.

Take “MNIHEIRKQFPILDQKVNGKQLVYFDSAATSQKPIQVIETLERYYKEYNSNVHRGVHTLGTKATDAYEGAREKVRKFINAKSMEEIIFTCGTTTALNTVAASYGLENVKEGDEIVISYMEHHSNIIPWQQVAKKTGATLKYLPLQPDGTISIEDARQTITPNTKIVSIMYVSNVLGTINPVKEIGAIAHENGAIMVVDGAQSTPHMKVDVQDLNCDFYALSAHKMCGPTGIGVLYGKKELLNNMEPIEFGGEMIDFVDLQESTWKELPWKFEAGTPIIGNAIGLGAAIDFLEEIGLDNIEKHEHELAQYALERLSEVDGVTIYGPKHRAGLVTFNIEDVHPHDVATVLDVEGIAVRAGHHCAQPLMKWLKASSTARASFYLYNTKEEIDTFVESLIKTKEYFTNVI”: the “soluble on expression in E. coli” value was “not soluble”.

For the sequence “MNIITLKVAIVEPLPMIRAGLEALLKKITGYKIQFIDAPADNGWVDVISFYCPDVVFMNPLVSGLTRNESDKACPQSRYVGLLTTPIDSNMLHNYDDTLSVHATVEELKQLLERLYQKTLEPEESGEEQQTLTNREKEIVVGVVKGMTNKEIAEELFLSTHTVITHRRNIAKKLQIHSPSGLTIYAIMNKLVNLDEIAH”, the “soluble on expression in E. coli” value was “not soluble”.

Take “MNILYTVENSIYVNITNTCPCSCVFCIRNEKDEVANSGSLWLEHEPSVDEVKEAFNKYNLDDYDEIVFCGYGEPLMRINELIDVAKFIKEKSSIKIRINTNGLSDLIHNKKTAILLKDVIDAVSISLNAPNKEAYNRVTQPKFGEKSFDYMLDFAKDCKKYIKEVAFSVVDEISPEEIEESKQLAKKLDIPLRVRHKN”: the “soluble on expression in E. coli” value is reported as “not soluble”.

With “MNIMITKKAFDWYKRELGLKPGDAIRFFARYGGCSTVQKGFSLGMAKDELVDKPAAQTTVDGITFFIEESDQWYFDGRDLTVDLDEKSDEPVFLVH”, the “soluble on expression in E. coli” value is given as “not soluble”.

“MNINPFANVSLQDYLEIVQIVDSTFPIGSFNHSFGMENYLREDTVTDDKGYEEWQEAYLASQFKYGEGLVIKLVYDAMVTDNIDQVWYYDKVLTVSTQARETRQGTKMIAKQMLRLIQRLHAIPVLDDYQSKIRKGVAFGNPAIVFALYVFNKGLGCNEAIALYGYSVISTMVQNAVRAIPLGQFAGQEIVLRSFSQLEKMTQEIQELDASYLGANTPGLELAQMKHETQVFRLFMSLEHHHHHH”: the “soluble on expression in E. coli” value is on record as “not soluble”.

Turning to “MNINTDIFKIQSNNVMPSRGKILISEPFLHDVTFGRSVVLLVDHTEEGSMGLIINKPLPLMLNDIIKEFKYIEDIPLHKGGPIGTDTLFYLHTLHEIPGTLPINNGLYLNGDFDAIKKYILQGNPIKGKIRFFLGYSGWECEQLIQEIKENTWIISKEENTYLMNEDIKGMWKEALGKLGSKYETWSRFPQVPSLNLEHHHHHH”, the “soluble on expression in E. coli” value is recorded as “not soluble”.

For the sequence “MNIRDLEYLVALAEHRHFRRAADSCHVSQPTLSGQIRKLEDELGVMLLERTSRKVLFTQAGMLLVDQARTVLREVKVLKEMASQQGETMSGPLHIGLIPTVGPYLLPHIIPMLHQTFPKLEMYLHEAQTHQLLAQLDSGKLDCVILALVKESEAFIEVPLFDEPMLLAIYEDHPWANRECVPMADLAGEKLLMLEDGHCLRDQAMGFCFEAGADEDTHFRATSLETLRNMVAAGSGITLLPALAVPPERKRDGVVYLPCIKPEPRRTIGLVYRPGSPLRSRYEQLAEAIRARMDGHFDKVLKQAV”, the “soluble on expression in E. coli” value is “soluble”.

For the sequence “MNIVITGGTGLIGRHLIPRLLELGHQITVVTRNPQKASSVLGPRVTLWQGLADQSNLNGVDAVINLAGEPIADKRWTHEQKERLCQSRWNITQKLVDLINASDTPPSVLISGSATGYYGDLGEVVVTEEEPPHNEFTHKLCARWEEIACRAQSDKTRVCLLRTGVVLAPDGGILGKMLPPFRLGLGGPIGSGRQYLAWIHIDDMVNGILWLLDNELRGPFNMVSPYPVRNEQFAHALGHALHRPAILRVPATAIRLLMGESSVLVLGGQRALPKRLEEAGFAFRWYDLEEALADVVR”, the “soluble on expression in E. coli” value is “soluble”.

In the case of “MNIVSWKDANDEVAGGATTRREREVKEDQEETEVRATSGKTVIKKQPTSISSSSSSWMKSKDPRIVRVSRAFGGKDRHSKVCTLRGLRDRRVRLSVPTAIQLYDLQERLGVDQPSKAVDWLLDAAKEEIDELPPLPISPENFSIFNHHQSFLNLGQRPGQDPTQLGFKINGCVQKSTTTSREENDREKGENDVVYTNNHHVGSYGTYHNLEHHHHHHQHLSLQADYHSHQLHSLVPFPSQILVCPMTTSPTTTTIQSLFPSSSSAGSGTMETLDPRQMVSHFQMPLMGNSSSSSSQNISTLYSLLHGSSSNNGGRDIDNRMSSVQFNRTNSTTTANMSRHLGSERCTSRGSDHHM”, the “soluble on expression in E. coli” value is “soluble”.

For “MNKDIETQRFKQQKKWQKYYKFRGQFFLMKKYSKRMIFDRRIKMTTKEKIEFIKQVTPHSDSEVEKIIKGMSDTSINRWYEIEKYRIDQELEEAVLTIYC”, the “soluble on expression in E. coli” value is “not soluble”.

On to “MNKEQECSKNIFDLPREIVIYHLKSAGIFVFEELDCDDIAQTPLLIMAPSVPLHVRLERTPTINLLKCHEKPLTEDQLFLLLSKCQQHTKKCMPSEEEIDQWVEVSSSKPREQSSNRGSKKDSWNHSIFMYNFFHRRGSNKRAAKYLEKIENGKSEKIRARVSQIRNLDLGYISLPMETINLEDAKQRDKLKEKALAETAESKKGKDILNLFTNVYY”, for which the “soluble on expression in E. coli” value is given as “not soluble”.

In the case of “MNKHERLDEIAKLVNKKGTIRTNEIVEGLNVSDMTVRRDLIELENKGILTKIHGGARSNSTFQYKEISHKEKHTRQIAEKRYIARKAASLIEDGDTLFFGPGTTVELLAEEVNHHTLTIITNCLPVYKILLEKQTAHFRVYLIGGEMRHITEAFVGEMANAMLEKLRFSKMFFSSNAVNKGAVMTSTLDEAYTQQLALSNSIEKYLLIDHTKVGKEDFTSFCQLNELTAVVMDYEDEEKVETIKTYIEVVDLEHHHHHH”, the “soluble on expression in E. coli” value was “soluble”.

On to “MNKKKFENLPKWNNFALFNFLAKDKENSLEVMVAARGFAVPGIVATNYETAEEAANVVKELQTTAEVISVGLGGGGDWQNWRDVLHIARLAPNSHINQPIETAGLTNGLLPETYTNALVRPTGKVGIVKLSSGDEITAEEAVDYCLSANIPSIKFMSIEGTKYLDELVYLTKIAADKGIYGIEPAGGIGADNILEITTAIKSTGIPFYMPHIFGKTIDKATGRTKPEEIEKIFAALEGN”, for which the “soluble on expression in E. coli” value was “soluble”.

Turning to “MNKRNTQQRRHSIISILNEQGEVSVDELSLRFETSEVTIRKDLAELEKTGLLLRRYGGAVAIPDEVTQQFSAKIAPNKLSIAKAAAQLIKDHNRIIIDSGTTTSGLIAELNQKRGLVVMTNALHLANAIHELENEPTLLMTGGTWDPHSESFQGQVAEQVLRSYNFDQLFIGADGIDLARGTTTFNELTGLSKVMAEVSREVIVMVDSDKIGKRIPNLELPWSKISVLVTDARIEESALKQITEQGVKVILAPYSPLEHHHHHH”, the “soluble on expression in E. coli” value is listed as “soluble”.
